*1 amine or outer side, *2 acyl side, *3 side chain or, on linkers, in order; H or OH if unused. Side-chain parts run from the residue outwards. The star is where a group is joined. C18 diacid = O=C(O)CCCCCCCCCCCCCCCCC(=O)*; γGlu = O=C(O)[C@H](CCC(=O)[*:2])N[*:1]; Isovaleryl = CC(C)CC(=O)*; Ahx = NCCCCCC(=O)O
T1: human NPY2 receptor (human, UniProt P49146 1-381)
T1 construct: whole, on cells; also called hNPY2-R; hNPY2R
T1 sequence (looked up): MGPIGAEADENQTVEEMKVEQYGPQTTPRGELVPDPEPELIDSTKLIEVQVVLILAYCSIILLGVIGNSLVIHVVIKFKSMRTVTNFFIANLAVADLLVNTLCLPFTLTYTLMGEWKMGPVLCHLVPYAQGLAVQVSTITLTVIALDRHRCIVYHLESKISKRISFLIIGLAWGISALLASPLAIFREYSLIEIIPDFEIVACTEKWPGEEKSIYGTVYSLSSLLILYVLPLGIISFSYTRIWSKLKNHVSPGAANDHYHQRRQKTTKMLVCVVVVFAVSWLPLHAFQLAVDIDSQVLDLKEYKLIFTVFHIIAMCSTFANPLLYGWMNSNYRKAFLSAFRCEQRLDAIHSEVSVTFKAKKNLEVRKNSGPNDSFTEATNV

B1: Compound 151 (peptide)
peptide: Isovaleryl-APEK([Ahx-γGlu-C18 diacid])PEEDSSPEELQRYYVALRHYYNWLTRQRY-NH2
SMILES: CC(C)CC(=O)N[C@@H](C)C(=O)N1CCC[C@H]1C(=O)N[C@@H](CCC(=O)O)C(=O)N[C@@H](CCCCNC(=O)CCCCCNC(=O)CC[C@H](NC(=O)CCCCCCCCCCCCCCCCC(=O)O)C(=O)O)C(=O)N1CCC[C@H]1C(=O)N[C@@H](CCC(=O)O)C(=O)N[C@@H](CCC(=O)O)C(=O)N[C@@H](CC(=O)O)C(=O)N[C@@H](CO)C(=O)N[C@@H](CO)C(=O)N1CCC[C@H]1C(=O)N[C@@H](CCC(=O)O)C(=O)N[C@@H](CCC(=O)O)C(=O)N[C@@H](CC(C)C)C(=O)N[C@@H](CCC(N)=O)C(=O)N[C@@H](CCCNC(=N)N)C(=O)N[C@@H](Cc1ccc(O)cc1)C(=O)N[C@@H](Cc1ccc(O)cc1)C(=O)N[C@H](C(=O)N[C@@H](C)C(=O)N[C@@H](CC(C)C)C(=O)N[C@@H](CCCNC(=N)N)C(=O)N[C@@H](Cc1c[nH]cn1)C(=O)N[C@@H](Cc1ccc(O)cc1)C(=O)N[C@@H](Cc1ccc(O)cc1)C(=O)N[C@@H](CC(N)=O)C(=O)N[C@@H](Cc1c[nH]c2ccccc12)C(=O)N[C@@H](CC(C)C)C(=O)N[C@H](C(=O)N[C@@H](CCCNC(=N)N)C(=O)N[C@@H](CCC(N)=O)C(=O)N[C@@H](CCCNC(=N)N)C(=O)N[C@@H](Cc1ccc(O)cc1)C(N)=O)[C@@H](C)O)C(C)C
notes: printed structure identical to Compound 24
B2: Compound 152 (peptide)
peptide: Isovaleryl-APEK([Ahx-γGlu-C18 diacid])PEEDATPEETQRYYVSLRHYYNWLTRQRY-NH2
SMILES: CC(C)CC(=O)N[C@@H](C)C(=O)N1CCC[C@H]1C(=O)N[C@@H](CCC(=O)O)C(=O)N[C@@H](CCCCNC(=O)CCCCCNC(=O)CC[C@H](NC(=O)CCCCCCCCCCCCCCCCC(=O)O)C(=O)O)C(=O)N1CCC[C@H]1C(=O)N[C@@H](CCC(=O)O)C(=O)N[C@@H](CCC(=O)O)C(=O)N[C@@H](CC(=O)O)C(=O)N[C@@H](C)C(=O)N[C@H](C(=O)N1CCC[C@H]1C(=O)N[C@@H](CCC(=O)O)C(=O)N[C@@H](CCC(=O)O)C(=O)N[C@H](C(=O)N[C@@H](CCC(N)=O)C(=O)N[C@@H](CCCNC(=N)N)C(=O)N[C@@H](Cc1ccc(O)cc1)C(=O)N[C@@H](Cc1ccc(O)cc1)C(=O)N[C@H](C(=O)N[C@@H](CO)C(=O)N[C@@H](CC(C)C)C(=O)N[C@@H](CCCNC(=N)N)C(=O)N[C@@H](Cc1c[nH]cn1)C(=O)N[C@@H](Cc1ccc(O)cc1)C(=O)N[C@@H](Cc1ccc(O)cc1)C(=O)N[C@@H](CC(N)=O)C(=O)N[C@@H](Cc1c[nH]c2ccccc12)C(=O)N[C@@H](CC(C)C)C(=O)N[C@H](C(=O)N[C@@H](CCCNC(=N)N)C(=O)N[C@@H](CCC(N)=O)C(=O)N[C@@H](CCCNC(=N)N)C(=O)N[C@@H](Cc1ccc(O)cc1)C(N)=O)[C@@H](C)O)C(C)C)[C@@H](C)O)[C@@H](C)O
B3: Compound 153 (peptide)
peptide: Isovaleryl-APEK([Ahx-γGlu-C18 diacid])PEELATPEELQRYYVSLRHYYNWLTRQRY-NH2
SMILES: CC(C)CC(=O)N[C@@H](C)C(=O)N1CCC[C@H]1C(=O)N[C@@H](CCC(=O)O)C(=O)N[C@@H](CCCCNC(=O)CCCCCNC(=O)CC[C@H](NC(=O)CCCCCCCCCCCCCCCCC(=O)O)C(=O)O)C(=O)N1CCC[C@H]1C(=O)N[C@@H](CCC(=O)O)C(=O)N[C@@H](CCC(=O)O)C(=O)N[C@@H](CC(C)C)C(=O)N[C@@H](C)C(=O)N[C@H](C(=O)N1CCC[C@H]1C(=O)N[C@@H](CCC(=O)O)C(=O)N[C@@H](CCC(=O)O)C(=O)N[C@@H](CC(C)C)C(=O)N[C@@H](CCC(N)=O)C(=O)N[C@@H](CCCNC(=N)N)C(=O)N[C@@H](Cc1ccc(O)cc1)C(=O)N[C@@H](Cc1ccc(O)cc1)C(=O)N[C@H](C(=O)N[C@@H](CO)C(=O)N[C@@H](CC(C)C)C(=O)N[C@@H](CCCNC(=N)N)C(=O)N[C@@H](Cc1c[nH]cn1)C(=O)N[C@@H](Cc1ccc(O)cc1)C(=O)N[C@@H](Cc1ccc(O)cc1)C(=O)N[C@@H](CC(N)=O)C(=O)N[C@@H](Cc1c[nH]c2ccccc12)C(=O)N[C@@H](CC(C)C)C(=O)N[C@H](C(=O)N[C@@H](CCCNC(=N)N)C(=O)N[C@@H](CCC(N)=O)C(=O)N[C@@H](CCCNC(=N)N)C(=O)N[C@@H](Cc1ccc(O)cc1)C(N)=O)[C@@H](C)O)C(C)C)[C@@H](C)O
B4: Compound 154 (peptide)
peptide: Isovaleryl-APEK([Ahx-γGlu-C18 diacid])PEEAATPEEIQRYYVALRHYYNWLTRQRY-NH2
SMILES: CC[C@H](C)[C@H](NC(=O)[C@H](CCC(=O)O)NC(=O)[C@H](CCC(=O)O)NC(=O)[C@@H]1CCCN1C(=O)[C@@H](NC(=O)[C@H](C)NC(=O)[C@H](C)NC(=O)[C@H](CCC(=O)O)NC(=O)[C@H](CCC(=O)O)NC(=O)[C@@H]1CCCN1C(=O)[C@H](CCCCNC(=O)CCCCCNC(=O)CC[C@H](NC(=O)CCCCCCCCCCCCCCCCC(=O)O)C(=O)O)NC(=O)[C@H](CCC(=O)O)NC(=O)[C@@H]1CCCN1C(=O)[C@H](C)NC(=O)CC(C)C)[C@@H](C)O)C(=O)N[C@@H](CCC(N)=O)C(=O)N[C@@H](CCCNC(=N)N)C(=O)N[C@@H](Cc1ccc(O)cc1)C(=O)N[C@@H](Cc1ccc(O)cc1)C(=O)N[C@H](C(=O)N[C@@H](C)C(=O)N[C@@H](CC(C)C)C(=O)N[C@@H](CCCNC(=N)N)C(=O)N[C@@H](Cc1c[nH]cn1)C(=O)N[C@@H](Cc1ccc(O)cc1)C(=O)N[C@@H](Cc1ccc(O)cc1)C(=O)N[C@@H](CC(N)=O)C(=O)N[C@@H](Cc1c[nH]c2ccccc12)C(=O)N[C@@H](CC(C)C)C(=O)N[C@H](C(=O)N[C@@H](CCCNC(=N)N)C(=O)N[C@@H](CCC(N)=O)C(=O)N[C@@H](CCCNC(=N)N)C(=O)N[C@@H](Cc1ccc(O)cc1)C(N)=O)[C@@H](C)O)C(C)C
B5: Compound 155 (peptide)
peptide: Isovaleryl-APEK([Ahx-γGlu-C18 diacid])PEEDATPEELQRYYVSLRHYYNWLSRQRY-NH2
SMILES: CC(C)CC(=O)N[C@@H](C)C(=O)N1CCC[C@H]1C(=O)N[C@@H](CCC(=O)O)C(=O)N[C@@H](CCCCNC(=O)CCCCCNC(=O)CC[C@H](NC(=O)CCCCCCCCCCCCCCCCC(=O)O)C(=O)O)C(=O)N1CCC[C@H]1C(=O)N[C@@H](CCC(=O)O)C(=O)N[C@@H](CCC(=O)O)C(=O)N[C@@H](CC(=O)O)C(=O)N[C@@H](C)C(=O)N[C@H](C(=O)N1CCC[C@H]1C(=O)N[C@@H](CCC(=O)O)C(=O)N[C@@H](CCC(=O)O)C(=O)N[C@@H](CC(C)C)C(=O)N[C@@H](CCC(N)=O)C(=O)N[C@@H](CCCNC(=N)N)C(=O)N[C@@H](Cc1ccc(O)cc1)C(=O)N[C@@H](Cc1ccc(O)cc1)C(=O)N[C@H](C(=O)N[C@@H](CO)C(=O)N[C@@H](CC(C)C)C(=O)N[C@@H](CCCNC(=N)N)C(=O)N[C@@H](Cc1c[nH]cn1)C(=O)N[C@@H](Cc1ccc(O)cc1)C(=O)N[C@@H](Cc1ccc(O)cc1)C(=O)N[C@@H](CC(N)=O)C(=O)N[C@@H](Cc1c[nH]c2ccccc12)C(=O)N[C@@H](CC(C)C)C(=O)N[C@@H](CO)C(=O)N[C@@H](CCCNC(=N)N)C(=O)N[C@@H](CCC(N)=O)C(=O)N[C@@H](CCCNC(=N)N)C(=O)N[C@@H](Cc1ccc(O)cc1)C(N)=O)C(C)C)[C@@H](C)O

Biological target: T1, human NPY2 receptor
Test: RLB: displacement of 125I-PYY(1-36) from hNPY2R membranes

Row | Binder | Ki
1 | B1 | 1.68 nM
2 | B2 | 1.32 nM
3 | B3 | 6.8 nM
4 | B4 | 3.71 nM
5 | B5 | 7.6 nM
